Experimental data published in the NTF2 design screens of Basanta et al. (2020).

Assay: protease stability score; higher = more stable; yeast display proteolysis, trypsin and chymotrypsin;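 note: relative to predicted unfolded state with 0 unfolded-like and 1 meaning tenfold more protease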

Sequence	protease stability score
SELEKDQEDFVRIVEEMMNTGDEHVFKNLADPHVRNDVNGKDVHGRELVTKIWHFLLRHLGINHIELKHVEIYGNKVIIHMEERVGDKRVELVIVAEKVNGKWYLSEIRFEHK	1.28
SEIEEFTRKLLEMFLEAFLTGDWKFLWELADPNVRLNVGDKHAHGMESSKHLLDEWLTEMRLRDMHVHSVHFQGEKRDNNGKEHRIYGDKVRLWDVHLHLVIVNGRLKEVNIEER	1.31
HEEHDEMQEALRRFIDILHTGDEKERKELADPHVRIDVDGVDHHGREWLTKWTVRLAREMRIHPEIKHSEVFNGQIELHTSEKVDFNGVHEIIESFLLVIKINGRWFLTHVQVH	0.92
DKTTEEAERDAREVTRLHRTGDEEYLEKYFDPHVKLEFNGRDVHGMELASEILKKVRRDLGVDHIEVKHVELDVQGEWIHVHLNLRVFFDGRETRYEYNVHVRKIDGKWIIKHVIVRVS	1.34
DEKDRLSEELAKHLYRMMYTGDWERIFKMADPHVRLVIGDKEFHGRENFEETLRDHLEKIKNATMRLDDIELQGDKVHIFFTIHVNGREVEVEVHIRVIDGRIHHVDVQVRWV	1.49
SDVDDMAHKMATLLIDLLETGDWREIRKFADPNVRIEIGDKEYHGMDYHLKHFRDLGWELHLRVERIDVVNGRILIHQEVELRFDGRHDHRKHTLIIEKIDGKWRFNEMIIS	1.09
EEDEHFAESYAEIMIHSWITGNEDLFEHLADPNWRLRVGDKEFHGREEATEFLIEFYERIDHFEIHIHDMKNIGEKLFIDGELNIHVNGRTIRHHTEIVIYTINGKVKSEEVRIK	1.95
DEDEELVKEWFEILMHKVITGDEDTLRNLADPNVRVDINGRDHHGREKFIEVYRRLWEDFGIDYIDSDVEEMKVYDGQAEVTIRLEIRFNGRTLELTTHYDVEKVDGKWRLRRHEVR	1.29
SEREEKIEHALRRLFEVILTGDERLANELLDPNVLLDVGDKKIHGREEVMRILHHWRIDKFEMHTHDIRLIGEKAHVDTISDRRVHVNGRTQDITERVHFVVLKVNGVWFIHSMHIH	1.59
SEEEHRMREILDLLTESFHTGDERIHLEYADPHARFDIGDKHIHGRELFTKRWKEWLERFKNITLQLRIDDVSIIDGVFVVEGTLTIRINGVEIERDTHIFLYIVDGRVSTMKRTIH	-0.116
SEEEDEIRKMLEEVLKNWRTGNEERIYELADPNTRVEIDGREHHGRHVVAHLIKEWRIHDFILRRVDVQGNKVIIHGELEGEFDGKRTNLHTNLVLVKIDGRWVIESLHYV	1.41
DEDEEDKKWMSEHLENLIHTGDEENLLKLVDPHAKVLVDGRTRHGRETLETWLDRFLRELGVDRVESRITHFDRIDGKVHVIMSIHVNGVDFISHSISQKVNGRWVIRSLHYDER	0.587
DEIEKVLEISYRLMHESWRTGDEDHLRDLIDPHARVIIDGRTYHGRDAMHLFVDELLREFGITQVDIEMKRIHVQGDKVESHHDINFNGQRVEVDISFHKVNGRWIAESVTWR	1.24
DEDHEEFHRLVHEIFEYWRTGDEESLSELADPHVRYLYGDKIWIGREDMMTFLREIRIDRVHIEDMRVHKIGNKAEIRSDTRMDLHFNGKRLETKTEVKIVLHKVNGRWVIKSIEYRIE	2.13
DENRKFARVMTELILHSWYTGDWELDVKLADPNVLNDFNGKEIHGMENVSRQFIEMRIDDVRIRDLRIEVYGEKLISKIDGERNGHFDGRTVDTRMHLELIMEKINGRWIIREIRIEVK	2.59
DEIERRAREFFELWMQTVRTGDEHASSELLDPHVRIEQGDKSFHGRETYNEILHHLHRHMWFEIYLDSIEIQGDKIHARVNFVYIIGDKESWIDVHIHIDVINGRMKRLEIRDH	0.511
NEERSHSEEVARLISHAWETGDEETLREQVDPHVKLVIGDKTFHGREEALTIIVQLRLRTVEIHDMKVVNGRLNLFTLWHIEIDGRRVLHHVVIHIEKIDGRWVMTEVRVH	2.1
SEEEELLRRIMKRVIHEWLTGDEDSFKELADPNVRVENIVDGRNIEAVGRDEAEHVWRHFDKHLGVDHRELKEFHVFDGVIRVRMKLKIGDKEIEMHLKFIIIDGRFTRVHSHSV	1.31
DELEHLANEWMKRVIHHLETGDEESWMKYADPNVRTEINIGDKTEERHGRERYIDFIRRLGFDHVHIHDQRIHHVNGVLFIHLNIKIKQGDYLFTSELDIIVRKIDGQWFVRSINIKVD	0.601
REDEKLFEEVLRELVKWLTTGDEKQMRDLFDPNARREVNGVEVHGWEEFLRHVREDRKRYDHVKDIEIHHIDIQGDKLEINVTLVGHIDGKEDVIIFTILLRKVNGKWIVKEIQFH	1.52
